The Human Domainome abundance scans (Beltran et al. 2025)

B1: Protein maelstrom homolog, residues 3 to 71; numbered along this chain, Q96JY0 (parent)
chain: NRKASRNAYYFFVQEKIPELRRRGLPVARVADAIPYCSSDWALLREEEKEKYAEMAREWRAAQGKDPGP

Variants of: B1
Experiment: abundance fitness (aPCA) (normalised: wild type 0, dead -1); higher = more abundant; growth selection in yeast, the domain comes from the species named
Conditions: Homo sapiens

Abundance fitness of substitutions, site by site:
R6: T 0.109 | P -0.179 | Y -0.175 | V -0.467 | S -0.228 | Q -0.447
P18: D -0.313 | C -0.358 | A -0.376 | E -0.306
I17: L -0.18 | P -0.755 | M -0.241 | G -0.503 | H -0.832 | V -0.166 | Y -0.818 | Q -0.961 | C -0.771 | W -0.264 | N -0.797 | A -0.467 | F -0.323 | K -0.687 | R -0.501
F11: H -0.107 | I -0.398 | W -0.371 | N -0.512 | A -0.265 | G -0.694 | K -0.94 | T -0.38 | R -0.674 | V -0.502 | Q -0.328 | S -0.526 | Y -0.036 | P -0.776 | L -0.322 | C -0.313 | D -0.705 | M -0.072
Y10: L -0.332 | I -0.657 | S -0.552 | D 0.185 | Q -0.254 | V -0.498 | M -0.361 | E -0.065 | K -0.454 | P -1.07 | G -0.5 | C -0.643 | N 0.15 | W -0.175 | A -0.403 | F 0.085 | R -0.358 | T -0.427
Y9: C -0.289 | M 0.026 | H -0.137 | D -0.185 | S -0.513 | R -0.239 | F 0.18 | I -0.09 | V -0.222 | E 0.001 | P -0.338 | T -0.615 | K -0.037 | A -0.53 | W -0.242 | N -0.168 | Q -0.033 | L -0.007 | G -0.61
V13: F -0.532 | L -0.32 | I -0.375 | G -0.797
E15: H 0.023 | D -0.241
K16: N 0.082 | A -0.096 | Y -0.697 | V -0.41 | S -0.141 | G -0.673 | W -0.819 | R 0.031 | F -0.555 | C -0.428 | M -0.041 | Q -0.028 | T -0.375
A8: S -0.177 | E -0.294 | K -0.483 | F -0.936 | Y -0.696 | C -0.269 | Q -0.304 | T -0.325 | I -0.27 | V -0.796 | P -0.221 | H -0.498 | L -0.783 | R -0.385 | M -0.357 | D -0.046 | G -0.057 | N -0.429
N7: D 0.212 | L -0.168 | K -0.05 | M 0.015 | T 0 | Q -0.147 | A -0.993 | S 0.045 | Y -0.44 | V -0.535 | I -0.355 | C -0.497 | G 0.01 | F -0.233 | H -0.267 | W -0.257 | P -0.285
F12: I -0.97 | W -0.404 | S -0.7 | G -0.531 | Y 0.013 | L -0.713 | P -0.869 | C -0.621 | R -0.797 | K -0.851 | E -0.778 | V -0.757 | M -0.53 | D -0.403 | H -0.847 | N -0.624
Q14: G -0.303 | W -0.014 | E 0.135 | P -0.724 | A -0.171 | M -0.023 | T -0.186 | V -0.265 | R -0.074 | H -0.618 | F -0.299 | C -0.148 | S -0.196 | Y -0.145 | L -0.079 | I -0.228 | D 0.054
